From patent US20260265379A1

B1: bsAb006 (bispecific antibody)
heavy: QVQLVQSGVEVKKPGASVKVSCKASGYTFTNYYMYWVRQAPGQGLEWMGGINPSNGGTNFNEKFKNRVTLTTDSSTTTAYMELKSLQFDDTAVYYCARRDYRFDMGFDYWGQGTTVTVSSASTKGPSVFPLAPSSKSTSGGTAALGCLVKDYFPEPVTVSWNSGALTSGVHTFPAVLQSSGLYSLSSVVTVPSSSLGTQTYICNVNHKPSNTKVDKRVEPKSCDKTHTCPPCPAPEFEGGPSVFLFPPKPKDTLMISRTPEVTCVVVDVSHEDPEVKFNWYVDGVEVHNAKTKPREEQYNSTYRVVSVLTVLHQDWLNGKEYKCKVSNKALPASIEKTISKAKGQPREPQVYTLPPSREEMTKNQVSLTCLVKGFYPSDIAVEWESNGQPENNYKTTPPVLDSDGSFFLYSKLTVDKSRWQQGNVFSCSVMHEALHNHYTQKSLSLSPGGGGGSGGGGSGGGGSGGGGSDIQMTQSPSSLSASVGDRVTITCHASQNINVWLSWYQQKPGKAPKLLIYKASNLHTGVPSRFTGSGSGTDFTFTISSLQPEDIATYYCQQGQTYPYTFGQGTKLEIKGGGGSGGGGSGGGGSGGGGSQVQLVQSGAEVKKPGASVKLSCKASGYIFTRYYMYWVKQRPGQGLEWIGEINPNNGGTKFNEKFKNRATLTVDKSISTAYMELSRLRSDDTAVYYCSREDDYDGTPFAMDYWGQGTLVTVSS
light: EIVLTQSPATLSLSPGERATLSCRASKGVSTSGYSYLHWYQQKPGQAPRLLIYLASYLESGVPARFSGSGSGTDFTLTISSLEPEDFAVYYCQHSRDLPLTFGGGTKVEIKRTVAAPSVFIFPPSDEQLKSGTASVVCLLNNFYPREAKVQWKVDNALQSGNSQESVTEQDSKDSTYSLSSTLTLSKADYEKHKVYACEVTHQGLSSPVTKSFNRGEC
B2: bsAb034 (bispecific antibody, not shown: small tags and cut ends; a dimerising Fc or GST)
heavy (part 1 of 2): QVQLVQSGVEVKKPGASVKVSCKASGYTFTNYYMYWVRQAPGQGLEWMGGINPSNGGTNFNEKFKNRVTLTTDSSTTTAYMELKSLQFDDTAVYYCARRDYRFDMGFDYWGQGTTVTVSS
heavy (part 2 of 2): GGGGSGGGGSGGGGSGGGGSQVQLVQSGAEVKKPGASVKLSCKASGYIFTRYYMYWVKQRPGQGLEWIGEINPNNGGTKFNEKFKNRATLTVDKSISTAYMELSRLRSDDTAVYYCSREDDYDGTPFAMDYWGQGTLVTVSSGGGGSGGGGSGGGGSGGGGSDIQMTQSPSSLSASVGDRVTITCHASQNINVWLSWYQQKPGKAPKLLIYKASNLHTGVPSRFTGSGSGTDFTFTISSLQPEDIATYYCQQGQTYPYTFGQGTKLEIK
heavy: GGGGSGGGGSGGGGSGGGGSQVQLVQSGAEVKKPGASVKLSCKASGYIFTRYYMYWVKQRPGQGLEWIGEINPNNGGTKFNEKFKNRATLTVDKSISTAYMELSRLRSDDTAVYYCSREDDYDGTPFAMDYWGQGTLVTVSSGGGGSGGGGSGGGGSGGGGSDIQMTQSPSSLSASVGDRVTITCHASQNINVWLSWYQQKPGKAPKLLIYKASNLHTGVPSRFTGSGSGTDFTFTISSLQPEDIATYYCQQGQTYPYTFGQGTKLEIK
light: EIVLTQSPATLSLSPGERATLSCRASKGVSTSGYSYLHWYQQKPGQAPRLLIYLASYLESGVPARFSGSGSGTDFTLTISSLEPEDFAVYYCQHSRDLPLTFGGGTKVEIKRTVAAPSVFIFPPSDEQLKSGTASVVCLLNNFYPREAKVQWKVDNALQSGNSQESVTEQDSKDSTYSLSSTLTLSKADYEKHKVYACEVTHQGLSSPVTKSFNRGEC
B3: bsAb021 (bispecific antibody)
heavy: QVQLVQSGAEVKKPGASVKLSCKASGYIFTRYYMYWVKQRPGQGLEWIGEINPNNGGTKFNEKFKNRATLTVDKSISTAYMELSRLRSDDTAVYYCSREDDYDGTPFAMDYWGQGTLVTVSSGGGGSGGGGSGGGGSGGGGSDIQMTQSPSSLSASVGDRVTITCHASQNINVWLSWYQQKPGKAPKLLIYKASNLHTGVPSRFTGSGSGTDFTFTISSLQPEDIATYYCQQGQTYPYTFGQGTKLEIKGGGGSGGGGSGGGGSGGGGSQVQLVQSGVEVKKPGASVKVSCKASGYTFTNYYMYWVRQAPGQGLEWMGGINPSNGGTNFNEKFKNRVTLTTDSSTTTAYMELKSLQFDDTAVYYCARRDYRFDMGFDYWGQGTTVTVSSASTKGPSVFPLAPSSKSTSGGTAALGCLVKDYFPEPVTVSWNSGALTSGVHTFPAVLQSSGLYSLSSVVTVPSSSLGTQTYICNVNHKPSNTKVDKRVEPKSCDKTHTCPPCPAPEFEGGPSVFLFPPKPKDTLMISRTPEVTCVVVDVSHEDPEVKFNWYVDGVEVHNAKTKPREEQYNSTYRVVSVLTVLHQDWLNGKEYKCKVSNKALPASIEKTISKAKGQPREPQVYTLPPSREEMTKNQVSLTCLVKGFYPSDIAVEWESNGQPENNYKTTPPVLDSDGSFFLYSKLTVDKSRWQQGNVFSCSVMHEALHNHYTQKSLSLSPG
light: EIVLTQSPATLSLSPGERATLSCRASKGVSTSGYSYLHWYQQKPGQAPRLLIYLASYLESGVPARFSGSGSGTDFTLTISSLEPEDFAVYYCQHSRDLPLTFGGGTKVEIKRTVAAPSVFIFPPSDEQLKSGTASVVCLLNNFYPREAKVQWKVDNALQSGNSQESVTEQDSKDSTYSLSSTLTLSKADYEKHKVYACEVTHQGLSSPVTKSFNRGEC
B4: bsAb009 (bispecific antibody)
heavy: QVQLVQSGVEVKKPGASVKVSCKASGYTFTNYYMYWVRQAPGQGLEWMGGINPSNGGTNFNEKFKNRVTLTTDSSTTTAYMELKSLQFDDTAVYYCARRDYRFDMGFDYWGQGTTVTVSSASTKGPSVFPLAPSSKSTSGGTAALGCLVKDYFPEPVTVSWNSGALTSGVHTFPAVLQSSGLYSLSSVVTVPSSSLGTQTYICNVNHKPSNTKVDKRVEPKSCDKTHTCPPCPAPEFEGGPSVFLFPPKPKDTLMISRTPEVTCVVVDVSHEDPEVKFNWYVDGVEVHNAKTKPREEQYNSTYRVVSVLTVLHQDWLNGKEYKCKVSNKALPASIEKTISKAKGQPREPQVYTLPPSREEMTKNQVSLTCLVKGFYPSDIAVEWESNGQPENNYKTTPPVLDSDGSFFLYSKLTVDKSRWQQGNVFSCSVMHEALHNHYTQKSLSLSPG
light: EIVLTQSPATLSLSPGERATLSCRASKGVSTSGYSYLHWYQQKPGQAPRLLIYLASYLESGVPARFSGSGSGTDFTLTISSLEPEDFAVYYCQHSRDLPLTFGGGTKVEIKRTVAAPSVFIFPPSDEQLKSGTASVVCLLNNFYPREAKVQWKVDNALQSGNSQESVTEQDSKDSTYSLSSTLTLSKADYEKHKVYACEVTHQGLSSPVTKSFNRGECGGGGSGGGGSGGGGSGGGGSQVQLVQSGAEVKKPGASVKLSCKASGYIFTRYYMYWVKQRPGQGLEWIGEINPNNGGTKFNEKFKNRATLTVDKSISTAYMELSRLRSDDTAVYYCSREDDYDGTPFAMDYWGQGTLVTVSSGGGGSGGGGSGGGGSGGGGSDIQMTQSPSSLSASVGDRVTITCHASQNINVWLSWYQQKPGKAPKLLIYKASNLHTGVPSRFTGSGSGTDFTFTISSLQPEDIATYYCQQGQTYPYTFGQGTKLEIK
B5: bsAb037 (bispecific antibody, not shown: small tags and cut ends; a dimerising Fc or GST)
heavy 1: QVQLVQSGVEVKKPGASVKVSCKASGYTFTNYYMYWVRQAPGQGLEWMGGINPSNGGTNFNEKFKNRVTLTTDSSTTTAYMELKSLQFDDTAVYYCARRDYRFDMGFDYWGQGTTVTVSS
heavy 2: DIQMTQSPSSLSASVGDRVTITCHASQNINVWLSWYQQKPGKAPKLLIYKASNLHTGVPSRFTGSGSGTDFTFTISSLQPEDIATYYCQQGQTYPYTFGQGTKLEIKGGGGSGGGGSGGGGSGGGGSQVQLVQSGAEVKKPGASVKLSCKASGYIFTRYYMYWVKQRPGQGLEWIGEINPNNGGTKFNEKFKNRATLTVDKSISTAYMELSRLRSDDTAVYYCSREDDYDGTPFAMDYWGQGTLVTVSSGGGGSGGGGSGGGGSGGGGS
light: EIVLTQSPATLSLSPGERATLSCRASKGVSTSGYSYLHWYQQKPGQAPRLLIYLASYLESGVPARFSGSGSGTDFTLTISSLEPEDFAVYYCQHSRDLPLTFGGGTKVEIKRTVAAPSVFIFPPSDEQLKSGTASVVCLLNNFYPREAKVQWKVDNALQSGNSQESVTEQDSKDSTYSLSSTLTLSKADYEKHKVYACEVTHQGLSSPVTKSFNRGECGGGGSGGGGSGGGGSGGGGSQVQLVQSGAEVKKPGASVKLSCKASGYIFTRYYMYWVKQRPGQGLEWIGEINPNNGGTKFNEKFKNRATLTVDKSISTAYMELSRLRSDDTAVYYCSREDDYDGTPFAMDYWGQGTLVTVSSGGGGSGGGGSGGGGSGGGGSDIQMTQSPSSLSASVGDRVTITCHASQNINVWLSWYQQKPGKAPKLLIYKASNLHTGVPSRFTGSGSGTDFTFTISSLQPEDIATYYCQQGQTYPYTFGQGTKLEIK

What follows are binders tested against BTN3A expressed at the cell surface (human), O00481 (assay: cell-based or functional assay).
Chain of BTN3A expressed at the cell surface (human), O00481 (O00481 30-513): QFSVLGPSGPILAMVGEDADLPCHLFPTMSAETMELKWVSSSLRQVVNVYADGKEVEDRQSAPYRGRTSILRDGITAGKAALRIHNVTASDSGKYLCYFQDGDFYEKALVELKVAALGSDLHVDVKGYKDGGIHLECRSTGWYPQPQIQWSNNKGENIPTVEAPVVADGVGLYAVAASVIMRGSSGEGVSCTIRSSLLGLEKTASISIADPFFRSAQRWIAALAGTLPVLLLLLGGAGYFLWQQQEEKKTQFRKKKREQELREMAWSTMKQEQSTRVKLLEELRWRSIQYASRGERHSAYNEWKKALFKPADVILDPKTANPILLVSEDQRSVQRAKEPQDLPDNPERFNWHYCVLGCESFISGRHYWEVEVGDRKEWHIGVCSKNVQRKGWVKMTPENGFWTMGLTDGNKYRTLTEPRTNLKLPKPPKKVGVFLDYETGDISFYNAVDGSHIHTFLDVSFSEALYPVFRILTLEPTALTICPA

Point of comparison: B2, Jurkat-Vy9Vo2 TCR MOP activation at 0.5 nM (fold-change to medium) 0.9. Against it:
- B1 — higher, 1
- B3 — higher, 1.6
- B4 — higher, 1
- B5 — higher, 1.2

Point of comparison: B5, Jurkat-Vy9Vo2 TCR MOP activation at 5 nM (fold-change to medium) 1.7. Against it:
- B1 — lower, 1
- B2 — lower, 1.1
- B3 — lower, 1.5
- B4 — lower, 0.8
